Experimental data taken from patent publication US20140294863A1, “SERUM ALBUMIN BINDING PEPTIDES FOR TUMOR TARGETING” (GENENTECH, INC., priority 2002, published 2014).
Values belong to the compound of their own block, whether it stands above or below them. Bridges are numbered along the chain shown (N, C = ends). Where no end group is shown, it is not given here.

Assays:
rabbit albumin [1] = target: T1, rabbit albumin (Oryctolagus cuniculus, UniProt P49065); assay: Direct Binding ELISA, AB.Fab variants on immobilized rabbit albumin; parameters: purchased Sigma; conditions: average and SD of at least 3 determinations
Method: (§1) Mouse, rat, or rabbit albumin (Sigma, St. Louis, Mo.) were immobilized onto NUNC Maxisorp™ 96-well plates at 2 ug/ml overnight at 4° C. […] AB.Fab variants were serially diluted in binding buffer and added at 100 μl per well to the immobilized albumin for 30 minutes at 25° C. Unbound AB.Fab variant was removed by washing wells with 0.05% PBS/Tween® 20 and bound AB.Fab variant was detected with goat anti-human Fab′2-HRP for 1 hour at 25° C. Bound HRP was measured with a solution of tetramethylbenzidine (TMB)/H202. After 15 minutes, the reaction was quenched by the addition of 1M phosphoric acid.
(§2) Initially we explored binding of the AB.Fab variants to immobilized albumin using a Direct Binding ELISA.

mouse albumin = target: T2, mouse albumin (Mus musculus, UniProt P07724); assay: Direct Binding ELISA, AB.Fab variants on immobilized mouse albumin; conditions: average and SD of at least 3 determinations
T2 construct: purchased Sigma
Method: as §1, §2

rat albumin [2] = target: T3, rat albumin (Rattus norvegicus, UniProt P02770); assay: Direct Binding ELISA, AB.Fab variants on immobilized rat albumin; parameters: purchased Sigma; conditions: average and SD of at least 3 determinations
Method: as §1, §2

rat albumin [3] = target: T3, rat albumin; assay: Solution Binding ELISA, AB.Fab variants with soluble rat albumin; parameters: purchased Sigma; conditions: Rat Albumin, soluble; Scatchard; average and SD of at least 3 determinations; read-out: Solution Binding ELISA (Kd)
rabbit albumin [4] = target: T1, rabbit albumin; conditions: FIG. 3
rat albumin [5] = target: T3, rat albumin; conditions: FIG. 3
TF and albumin = assay: biotin-TF binding assay (fusion on immobilized albumin detected with biotinylated TF); conditions: FIG. 8
Text: Purified D3H44 fusions retained their ability to bind TF as measured using a FX activation assay (FIG. 5), and a prothrombin time assay that measures prolongation of tissue factor dependent clotting (FIG. 6). The assay methods are described, for example, in Dennis et al., 2000, Nature 404: 465. […] Further, each of the albumin-binding fusions bound TF and albumin simultaneously. […] In this assay, binding of the D3H44 fusions to immobilized albumin was detected with biotinylated TF.

[6] = Pharmacokinetics of D3H44 variants in rabbits (TF binding ELISA); type: in vivo, rabbit; parameters: V1 Avg (Historical): unit not given here
Method: D3H44 variants were administered to rabbits as a 0.5 mg/kg bolus injection into the marginal ear vein. Each test group consisted of 3 rabbits (5 rabbits were used in the F(ab′)2 group). Serum samples were taken at the indicated time points, serially diluted, and the concentration of D3H44 was determined using a TF binding ELISA.
Pharmacokinetic analysis was performed using the test article plasma concentrations. Group mean plasma data for each test article conforms to a multi-exponential profile when plotted against the time post-dosing. The data were fit by a standard two-compartment model with bolus input and first-order rate constants for distribution and elimination phases. The general equation for the best fit of the data for i.v. administration was: c(t)=Ae^−αt+[…], where c(t) is the plasma concentration at time t, A and B are intercepts on the Y-axis, and α and β are the apparent first-order rate constants for the distribution and elimination phases, respectively. The α-phase is the initial phase of the clearance and reflects distribution of the protein into all extracellular fluid of the animal, whereas the second or β-phase portion of the decay curve represents true plasma clearance. Methods for fitting such equations are well known in the art. For example, A=D/V(α−k21)/(α−β), B=D/V (β−k21)/(α−β), and α and β (for α>β) are roots of the quadratic equation: r^2+(k12+k21+k10)r+k21k10=0 using estimated parameters of V=volume of distribution, k10=elimination rate, k12=transfer rate from compartment 1 to compartment 2 and k21=transfer rate from compartment 2 to compartment 1, and D=the administered dose.
Data analysis: Graphs of concentration versus time profiles were made using KaleidaGraph (KaleidaGraph™ V. 3.09 Copyright 1986-1997. Synergy Software. Reading, Pa.). Values reported as less than reportable (LTR) were not included in the PK analysis and are not represented graphically. Pharmacokinetic parameters were determined by compartmental analysis using WinNonlin software (WinNonlin® Professional V. 3.1 WinNonlin™ Copyright 1998-1999. Pharsight Corporation. Mountain View, Calif.). Pharmacokinetic parameters were computed as described in Ritschel W A and Kearns G L, 1999, IN: Handbook Of Basic Pharmacokinetics Including Clinical Applications, 5th edition, American Pharmaceutical Assoc., Washington, D.C.

[7] = in vivo; cited from earlier work
[8] = in vivo; cited from earlier work; remark: listed apart in the source
[9] = in vivo; cited from earlier work; remark: listed apart in the source
[10] = in vivo; cited from earlier work; remark: listed apart in the source
[11] = Summarized Pk Data (Historical)

T3 sequence (P02770 25-608): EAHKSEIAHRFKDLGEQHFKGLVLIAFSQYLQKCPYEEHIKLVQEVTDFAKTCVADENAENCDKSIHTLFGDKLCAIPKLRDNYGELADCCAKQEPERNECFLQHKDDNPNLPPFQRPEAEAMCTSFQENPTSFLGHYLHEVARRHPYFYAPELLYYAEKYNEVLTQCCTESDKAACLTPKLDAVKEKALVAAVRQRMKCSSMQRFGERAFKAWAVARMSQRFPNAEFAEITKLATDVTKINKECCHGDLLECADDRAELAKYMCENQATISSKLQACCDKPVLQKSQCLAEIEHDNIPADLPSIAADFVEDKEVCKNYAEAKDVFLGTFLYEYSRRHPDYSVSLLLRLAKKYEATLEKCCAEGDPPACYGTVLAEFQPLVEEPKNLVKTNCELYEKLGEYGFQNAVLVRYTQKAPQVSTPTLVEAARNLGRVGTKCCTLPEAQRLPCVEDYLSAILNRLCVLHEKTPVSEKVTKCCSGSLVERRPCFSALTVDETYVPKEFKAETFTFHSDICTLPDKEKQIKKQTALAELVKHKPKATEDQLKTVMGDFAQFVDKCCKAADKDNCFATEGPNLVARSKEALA
T1 sequence (P49065 25-608): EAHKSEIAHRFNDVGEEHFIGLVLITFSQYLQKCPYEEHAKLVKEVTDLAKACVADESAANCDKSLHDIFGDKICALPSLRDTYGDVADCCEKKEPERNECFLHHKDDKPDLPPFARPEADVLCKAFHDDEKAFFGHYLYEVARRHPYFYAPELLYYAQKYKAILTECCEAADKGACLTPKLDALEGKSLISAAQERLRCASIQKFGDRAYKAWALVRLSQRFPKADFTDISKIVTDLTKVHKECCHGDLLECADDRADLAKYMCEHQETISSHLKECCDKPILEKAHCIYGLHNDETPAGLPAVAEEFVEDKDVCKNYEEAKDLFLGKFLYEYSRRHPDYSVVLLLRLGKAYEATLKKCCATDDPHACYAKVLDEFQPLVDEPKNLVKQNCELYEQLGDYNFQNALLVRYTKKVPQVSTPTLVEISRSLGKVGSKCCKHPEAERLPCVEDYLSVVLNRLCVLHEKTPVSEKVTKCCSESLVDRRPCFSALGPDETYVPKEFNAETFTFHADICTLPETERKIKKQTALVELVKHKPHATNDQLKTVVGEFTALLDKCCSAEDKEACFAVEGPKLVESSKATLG
T2 sequence (P07724 25-608): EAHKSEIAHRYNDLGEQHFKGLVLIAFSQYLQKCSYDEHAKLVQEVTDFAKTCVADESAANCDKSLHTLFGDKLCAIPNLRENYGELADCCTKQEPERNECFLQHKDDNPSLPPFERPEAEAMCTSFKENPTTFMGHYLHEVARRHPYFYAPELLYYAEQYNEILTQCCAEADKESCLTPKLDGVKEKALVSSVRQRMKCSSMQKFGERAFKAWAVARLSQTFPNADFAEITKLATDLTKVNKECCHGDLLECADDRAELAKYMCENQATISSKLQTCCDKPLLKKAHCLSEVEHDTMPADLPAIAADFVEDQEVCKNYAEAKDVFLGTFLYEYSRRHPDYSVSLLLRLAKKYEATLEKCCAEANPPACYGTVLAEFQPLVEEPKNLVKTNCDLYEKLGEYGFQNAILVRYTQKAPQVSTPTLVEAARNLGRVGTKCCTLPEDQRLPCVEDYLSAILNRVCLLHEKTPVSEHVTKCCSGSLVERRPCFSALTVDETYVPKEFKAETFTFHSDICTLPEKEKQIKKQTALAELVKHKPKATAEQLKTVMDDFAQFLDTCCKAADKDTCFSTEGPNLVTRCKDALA

- EC50 (rabbit albumin [1]): > 2000 nM
- EC50 (mouse albumin): > 2000 nM
- EC50 (rat albumin [2]): > 1000 nM
- Kd (rat albumin [3]): 2430 ± 320 nM
Compound: 4D5-H11: AB.Fab variant made by deletion in 4D5-H4 (Table 12) (DICLPRWGCL; disulfide 3-9 (inferred); also: part of Fab heavy chain)

Compound: CC[C@H](C)[C@H](NC(=O)[C@H](CC(C)C)NC(=O)CNC(=O)[C@H](CCC(N)=O)NC(C)=O)C(=O)NCC(=O)N[C@@H](CC(=O)O)C(=O)N[C@H](C(=O)N[C@H]1CSSC[C@@H](C(=O)N[C@@H](CC(C)C)C(=O)N[C@@H](Cc2c[nH]c3ccccc23)C(=O)NCC(=O)N[C@@H](CC(=O)O)C(=O)N[C@@H](CO)C(=O)N[C@H](C(=O)N[C@@H](CCCCN)C(N)=O)C(C)C)NC(=O)CNC(=O)[C@H](Cc2c[nH]c3ccccc23)NC(=O)[C@H](CCCNC(=N)N)NC(=O)[C@@H]2CCCN2C(=O)[C@H](CC(C)C)NC1=O)[C@@H](C)CC [SA08]
- inhibition of BA phage binding to rabbit albumin (rabbit albumin [4]): clearly blocked
- inhibition of RD phage binding to rat albumin (rat albumin [5]): clearly blocked

- simultaneous binding of TF and albumin (TF and albumin): did not bind albumin
Compound: D3H44-Fab: Fab fragment of D3H44, a humanized antibody that binds human tissue factor (TF)
- AUC Avg (Historical) [6, 11]: 9.8 µg·h/mL
- AUC/Dose Avg (Historical) [6, 11]: 19.7 (hr * ug/mL)(/(mg/kg)
- CL Avg (Historical) [6, 11]: 51.8 mL/h/kg
- K10-HL Avg (Historical) [6, 11]: 0.760 hr
- V1 Avg (Historical) [6, 11]: 55.9
- Vss Avg (Historical) [6, 11]: 127 mL/kg
- AUC Avg ([6]; rabbit, 0.5 mg/kg bolus i.v.): 5.86 µg·h/mL
- AUC/Dose Avg ([6]; rabbit, 0.5 mg/kg bolus i.v.): 14.8 (hr * ug/mL)/(mg/kg)
- Cmax Avg ([6]; rabbit, 0.5 mg/kg bolus i.v.): 5.00 µg/mL
- MRT Avg ([6]; rabbit, 0.5 mg/kg bolus i.v.): 3.07 h
- V1* Avg (initial distribution volume) ([6]; rabbit, 0.5 mg/kg bolus i.v.): 90.6 mL/kg

Compound: albumin
- half-life in rabbit [7]: 5.55 days
- half-life in mouse [8]: 1 days
- half-life in rat [9]: 1.9 days
- half-life in man [10]: 19 days
